These results are taken from US20080096222.

Series [1] has as its target H3-GST with the mutation K4A.
Series [2] has as its target H3-GST with the mutation R2A.

B1: myc-tagged human haspin (protein)
chain: AASLPGPGSRLFRTYGAADGRRQRRPGREAAQWFPPQDRRRFFNSSGSSDASIGDPSQSDDPDDPDDPDFPGSPVRRRRRCPGGRVPKDRPSLTVTPKRWKLRARPSLTVTPRRLGLRARPPQKCSTPCGPLRLPPFPSRDSGRLSPDLSVCGQPRDGDELGISASLFSSLASPCPGSPTPRDSVISIGTSACLVAASAVPSDLHLPEVSLDRASLPCSQEEATGGAKDTRMVHQTRASLRSVLFGLMNSGTPEDSEFRADGKNMRESCCKRKLVVGNGPEGPGLSSTGKRRATGQDSCQERGLQEAVRREHQEASVPKGRIVPRGTDRLERTRSSRKSKHQEATETSLLHSHRFKKGQKLGKDSFPTQDLTPLQNACFWTKTRASFSFHKKKIVTDVSEVCSIYTTATSLSGSLLSECSNRPVMNRTSGAPSSWHSSSMYLLSPLNTLSISNKKASDAEKVYGECSQKGPVPFSHCLPTEKLQRCEKIGEGVFGEVFQTIADHTPVAIKIIAIEGPDLVNGSHQKTFEEILPEIIISKELSLLSGEVCNRTEGFIGLNSVHCVQGSYPPLLLKAWDHYNSTKGSANDRPDFFKDDQLFIVLEFEFGGIDLEQMRTKLSSLATAKSILHQLTASLAVAEASLRFEHRDLHWGNVLLKKTSLKKLHYTLNGKSSTIPSCGLQVSIIDYTLSRLERDGIVVFCDVSMDEDLFTGDGDYQFDIYRLMKKENNNRWGEYHPYSNVLWLHYLTDKMLKQMTFKTKCNTPAMKQIKRKIQEFHRTMLNFSSATDLLCQHSLFK
Regarding B1, the “phosphorylation of H3-GST by haspin (in vitro kinase assay)” value in series [1] and in series [2] was “substantially reduced phosphorylation of H3-GST by haspin” each time.
